Read-outs that look alike come from different tables or passages of the source. Square brackets hold non-standard residues; d marks the D form. Peptide text beside a SMILES is read from it. * marks the point of attachment. Sta = CC(C)C[C@H](N)[C@@H](O)CC(=O)O; Mercaptoacetyl = O=C(CS)*; AEEA = NCCOCCOCC(=O)O
Key:
[1] = target: T1, gastrin-releasing peptide receptor (GRPR) (Homo sapiens, UniProt P30550); test: SPECT/CT imaging of tumor uptake in PCa patients; format: in vivo; conditions: for SUVmax: prostate tumor, 40 µg iv; for SUVmax / Ratio SUVmax in Tumor to Background: 2 h post administration
T1 construct: from tissue; host or cells: primary prostate cancer, primary breast cancer and axillary lymph-node metastases in living patients
T1 sequence (P30550 whole entry): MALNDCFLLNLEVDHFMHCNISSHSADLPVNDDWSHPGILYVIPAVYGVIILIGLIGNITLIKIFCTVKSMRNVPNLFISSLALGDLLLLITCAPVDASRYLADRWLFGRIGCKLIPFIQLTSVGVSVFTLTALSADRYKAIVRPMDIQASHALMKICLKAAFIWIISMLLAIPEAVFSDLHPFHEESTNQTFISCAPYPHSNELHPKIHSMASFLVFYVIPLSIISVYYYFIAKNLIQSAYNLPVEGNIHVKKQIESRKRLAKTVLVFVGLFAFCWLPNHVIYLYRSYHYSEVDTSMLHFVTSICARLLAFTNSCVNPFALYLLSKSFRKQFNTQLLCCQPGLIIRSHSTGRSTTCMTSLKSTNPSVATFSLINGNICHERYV
Procedure: (§1) A single-center diagnostic phase I open-label exploratory study (ClinicalTrials.gov ID NCT04746638) was conducted at the Cancer Research Institute, Tomsk National Research Medical Center of the Russian Academy of Sciences, and the initial protocol was approved by the Institute’s Scientific Council and Board of Medical Ethics (protocol 14, approved 21 December 2020). Patients (18–70 y) with clinically and radiologically diagnosed (with histological verification) PCa or BCa were included in this study after providing written informed consent. Criteria for inclusion were: the ability to undergo planned diagnostic investigations; patient’s hematological, liver, and renal function test results within the normal limits; and a negative pregnancy test for BCa patients. The exclusion criteria included contraindications to surgical intervention due to severe concomitant pathology; a second malignancy (non-breast or non-prostate); activity/history of autoimmune disease, hepatitis B or C, HIV, or infectious diseases within the preceding 3 months; participation in other clinical studies; and ongoing toxicity over grade 2 from previous standards or investigational therapies. Additionally, for PCa patients, exclusion criteria were androgen deprivation therapy over 3 months, and for BCa patients, exclusion criteria were HER2-positive or non-luminal cancer, in situ T0 and T3-4 tumors, the presence of distant metastases, and history of chemo- and/or hormone-therapy. Six male PCa and seven female BCa patients were included in the study (Figure 1 and Figure 2).
(§2) Patients were injected with [^99mTc]Tc-maSSS-PEG2-RM26 (40 µg of maSSS-PEG2-RM26 labeled with 640 ± 165 MBq for PCa and 695 ± 120 MBq for BCa patients per injection) as a single intravenous bolus. Imaging was performed using a hybrid system (Symbia Intevo T16), equipped with a dual-head gamma camera and an integrated 16-slice CT scanner. For imaging, a low-energy high-resolution collimator was used. Patients underwent whole-body planar images (anterior and posterior, with a of scan speed 12 cm/min in a 1024 × 256 pixel matrix) and SPECT-CT acquisition (32 projections, 30 s each, in a 128 × 128 pixel matrix) and a low-dose CT (140 kVp, 20 mAs/slice in a 512 × 512 pixel matrix) were performed 2, 4, 6, and 24 h after injection. The images were transferred to a Syngo.via (Siemens) workstation for analysis.

[2] = target: T1, gastrin-releasing peptide receptor (GRPR); test: SPECT/CT imaging of tumor and LN metastasis uptake in BCa patients; format: in vivo; conditions: for SUVmax, tumor (T) / SUVmax, single LN metastasis (LNM): 2 h post administration, 40 µg iv; for median activity accumulation (SUVmax): 2 h after injection, Me [Q1–Q3]
Procedure: as §1, §2

[3] = clinical; conditions: human, in vivo; for tissue uptake dose at 2 h / tissue uptake dose at 4 h / tissue uptake dose at 6 h / tissue uptake dose at 24 h: iv, 40 ug, total radioactivity, Distribution, SD
Procedure: as §2
(§3) The geometric means of counts in the regions of interest (ROIs) drawn over organs and the whole body for anterior and posterior projections were calculated for every time point. An ROI for the heart was used to estimate activity concentrations in the blood. Quantification was performed as described previously. Absorbed doses for individual organs, effective doses, and effective dose equivalents were calculated in OLINDA/EXM 1.1 (adult male phantom for PCa and adult female phantom for BCa) using average residence times derived from activity distributions over time fitted to a single exponential using Prism 9.2.0 (GraphPad Software, LLC, Boston, MA, USA).

[4] = parameters: species or system human; conditions: in vivo
Procedure: as §3

[5] = test system: prostate-specific membrane antigen (PSMA); conditions: PCa patients; cited from earlier work
Procedure: Prostate and breast cancers are the most common sex-related malignancies, with an increasing incidence in many countries over the past 30 years. Accurate diagnosis and staging of the diseases are important for the prognosis and determination of treatment tactics for these pathologies. […] Many derivatives of this pseudo-peptide were tested clin ...

[6] = in vivo; cited from earlier work
Text: The biodistribution of [^99mTc]Tc-maSSS-PEG2-RM26 was characterized by the rapid whole body elimination and blood clearance of unbound tracers (Figure 4). This decreases the background caused by the blood-borne activity and creates preconditions for high-contrast imaging. The clinical trial confirmed the major feature of the tracer found in the preclinical studies, a substantial degree of hepatobiliary excretion. The hepatobiliary excretion of [^99mTc]Tc-maSSS-PEG2-RM26 was the highest among other GRPR antagonists tested in clinics and was similar to the excretion of [^99mTc]Tc-RP527, a ...

CC(C)C[C@H](NC(=O)C[C@H](O)[C@H](CC(C)C)NC(=O)[C@H](Cc1c[nH]cn1)NC(=O)CNC(=O)[C@@H](NC(=O)[C@H](C)NC(=O)[C@H](Cc1c[nH]c2ccccc12)NC(=O)[C@H](CCC(N)=O)NC(=O)[C@@H](Cc1ccccc1)NC(=O)COCCOCCNC(=O)[C@H](CO)NC(=O)[C@H](CO)NC(=O)[C@H](CO)NC(=O)CS)C(C)C)C(N)=O [[^99mTc]Tc-maSSS-PEG2-RM26, metal not drawn] (Mercaptoacetyl-SSS[AEEA][dF]QWAVGH[Sta]L-NH2)
SUVmax ([1]; PCa patient P2, SPECT/CT): 0.78 (1.7 × 2) | SUVmax ([1]; PCa patient P3, SPECT/CT): 1.21 (4.1 × 2.8) | SUVmax ([1]; PCa patient P4, SPECT/CT): 1.14 (1.8 × 2.0) | Ratio SUVmax in Tumor to Background ([1]; PCa patient P5): No accumulation | SUVmax ([1]; PCa patient P5, SPECT/CT): No accumulation | Ratio SUVmax in Tumor to Background ([1]; PCa patient P6): No accumulation | SUVmax ([1]; PCa patient P6, SPECT/CT): No accumulation | patients with uptake in tumors identified ([1]; PCa patients, SPECT/CT): four out of six | median activity accumulation (SUVmax) ([1]; prostate tumors, 2 h after injection, Me [Q1–Q3]): 1.18 [0.78–1.67] | SUVmax, tumor (T) ([2]; BCa patient B1, SPECT/CT): T: 1.41 (2.8 × 2.2) | SUVmax, single LN metastasis (LNM) ([2]; BCa patient B2, SPECT/CT): 1.8 | SUVmax, tumor (T) ([2]; BCa patient B2, SPECT/CT): 1.75 | SUVmax, single LN metastasis (LNM) ([2]; BCa patient B3, SPECT/CT): 1.8 | SUVmax, tumor (T) ([2]; BCa patient B3, SPECT/CT): 0.87 | SUVmax, single LN metastasis (LNM) ([2]; BCa patient B4, SPECT/CT): 0.58 | SUVmax, tumor (T) ([2]; BCa patient B4, SPECT/CT): 0.57 | SUVmax, single LN metastasis (LNM) ([2]; BCa patient B5, SPECT/CT): 1.8 | SUVmax, tumor (T) ([2]; BCa patient B5, SPECT/CT): 0.87 | SUVmax, tumor (T) ([2]; BCa patient B6, SPECT/CT): T: 0.43 (1.5 × 1.5) | SUVmax, tumor (T) ([2]; BCa patient B7, SPECT/CT): T: 0.50 (1.5 × 1.4) | patients with high uptake in axillary LN ([2]; BCa patients, SPECT/CT): four BCa patients | patients with increased accumulation in the tumor ([2]; BCa patients, SPECT/CT): seven out of seven | median activity accumulation (SUVmax) ([2]; LN metastases in BCa patients): 1.8 [0.58–1.8] | median activity accumulation (SUVmax) ([2]; breast tumors): 0.87 [0.43–1.75] | tissue uptake dose at 2 h ([3]; female, Gall bladder): 5 ± 5 %ID | tissue uptake dose at 4 h ([3]; female, Gall bladder): 5 ± 4 %ID | tissue uptake dose at 6 h ([3]; female, Gall bladder): 4 ± 3 %ID | tissue uptake dose at 24 h ([3]; female, Gall bladder): 0.3 ± 0.1 %ID | tissue uptake dose at 2 h ([3]; female, Jejunum): 21 ± 9 %ID | tissue uptake dose at 4 h ([3]; female, Jejunum): 25 ± 17 %ID | tissue uptake dose at 6 h ([3]; female, Jejunum): 13 ± 10 %ID | tissue uptake dose at 24 h ([3]; female, Jejunum): 3 ± 2 %ID | tissue uptake dose at 2 h ([3]; female, Kidney): 5 ± 3 %ID | tissue uptake dose at 4 h ([3]; female, Kidney): 3 ± 3 %ID | tissue uptake dose at 6 h ([3]; female, Kidney): 3 ± 3 %ID | tissue uptake dose at 24 h ([3]; female, Kidney): 5 ± 5 %ID | tissue uptake dose at 2 h ([3]; female, Liver): 6 ± 2 %ID | tissue uptake dose at 4 h ([3]; female, Liver): 3 ± 1 %ID | tissue uptake dose at 6 h ([3]; female, Liver): 3 ± 2 %ID | tissue uptake dose at 24 h ([3]; female, Liver): 2 ± 2 %ID | tissue uptake dose at 2 h ([3]; female, Lower colon): 1.4 ± 0.8 %ID | tissue uptake dose at 4 h ([3]; female, Lower colon): 1 ± 0.9 %ID | tissue uptake dose at 6 h ([3]; female, Lower colon): 0.8 ± 0.7 %ID | tissue uptake dose at 24 h ([3]; female, Lower colon): 20 ± 15 %ID | tissue uptake dose at 2 h ([3]; female, Upper colon): 1.1 ± 0.6 %ID | tissue uptake dose at 4 h ([3]; female, Upper colon): 6 ± 12 %ID | tissue uptake dose at 6 h ([3]; female, Upper colon): 19 ± 17 %ID | tissue uptake dose at 24 h ([3]; female, Upper colon): 15 ± 10 %ID | tissue uptake dose at 2 h ([3]; female, Urinary bladder): 4 ± 7 %ID | tissue uptake dose at 4 h ([3]; female, Urinary bladder): 1 ± 2 %ID | tissue uptake dose at 6 h ([3]; female, Urinary bladder): 0.3 ± 0.3 %ID | tissue uptake dose at 24 h ([3]; female, Urinary bladder): 0.2 ± 0.2 %ID | activity in liver and kidneys [3]: over 3 % of injected activity | injected activity excreted via bile [3]: Up to 40% | route of excretion [3]: predominantly hepatobiliary excretion | tissue uptake dose at 2 h ([3]; male, Gall bladder): 2 ± 2 %ID | tissue uptake dose at 4 h ([3]; male, Gall bladder): 2 ± 2 %ID | tissue uptake dose at 6 h ([3]; male, Gall bladder): 2 ± 2 %ID | tissue uptake dose at 24 h ([3]; male, Gall bladder): 2.2 ± 0.3 %ID | tissue uptake dose at 2 h ([3]; male, Jejunum): 12 ± 12 %ID | tissue uptake dose at 4 h ([3]; male, Jejunum): 9 ± 9 %ID | tissue uptake dose at 6 h ([3]; male, Jejunum): 9 ± 19 %ID | tissue uptake dose at 24 h ([3]; male, Jejunum): 10 ± 1 %ID | tissue uptake dose at 2 h ([3]; male, Kidney): 2.9 ± 0.9 %ID | tissue uptake dose at 4 h ([3]; male, Kidney): 3 ± 3 %ID | tissue uptake dose at 6 h ([3]; male, Kidney): 3 ± 1 %ID | tissue uptake dose at 24 h ([3]; male, Kidney): 2.4 ± 0.9 %ID | tissue uptake dose at 2 h ([3]; male, Liver): 4 ± 2 %ID | tissue uptake dose at 4 h ([3]; male, Liver): 2.2 ± 0.8 %ID | tissue uptake dose at 6 h ([3]; male, Liver): 1.8 ± 0.6 %ID | tissue uptake dose at 24 h ([3]; male, Liver): 2 ± 1 %ID | tissue uptake dose at 2 h ([3]; male, Lower colon): 0.6 ± 0.5 %ID | tissue uptake dose at 4 h ([3]; male, Lower colon): 0.2 ± 0.2 %ID | tissue uptake dose at 6 h ([3]; male, Lower colon): 0.5 ± 0.4 %ID | tissue uptake dose at 24 h ([3]; male, Lower colon): 0.4 ± 0.2 %ID | tissue uptake dose at 2 h ([3]; male, Upper colon): 1.1 ± 1 %ID | tissue uptake dose at 4 h ([3]; male, Upper colon): 8 ± 3 %ID | tissue uptake dose at 6 h ([3]; male, Upper colon): 20 ± 13 %ID | tissue uptake dose at 24 h ([3]; male, Upper colon): 7 ± 8 %ID | tissue uptake dose at 2 h ([3]; male, Urinary bladder): 4 ± 6 %ID | tissue uptake dose at 4 h ([3]; male, Urinary bladder): 2 ± 1 %ID | tissue uptake dose at 6 h ([3]; male, Urinary bladder): 0.6 ± 0.4 %ID | tissue uptake dose at 24 h ([3]; male, Urinary bladder): 0.16 ± 0.07 %ID | radionuclide-associated dose burden per patient [4]: 3-6 mSv/study | Absorbed dose, Ovaries ([4]; iv): 0.018 ± 0.008 | Absorbed dose, Testes ([4]; iv): 0.004 ± 0.005 | Absorbed dose, Uterus ([4]; iv): 0.020 ± 0.008

O=C(O)CC[C@H](NC(=O)N[C@@H](CCCCNC(=O)c1ccc([18F])nc1)C(=O)O)C(=O)O [^18F-DCFPyL]
sensitivity in the detection of LN metastases [5]: 40%

O=C([O-])CN(CCN(CC(=O)[O-])Cc1cc(CCC(=O)NCCCCCC(=O)NCCCC[C@H](NC(=O)N[C@@H](CCC(=O)O)C(=O)O)C(=O)O)ccc1[O-])Cc1cc(CCC(=O)O)ccc1[O-].[68Ga+3].[OH3+] [^68Ga-PSMA]
sensitivity in the detection of LN metastases [5]: 61%

D-Phe-Gln-Trp-Ala-Val-Sar-His-Sta-Leu-NHEt [[^99mTc]Tc-DB15, ^99mTc-labeled BN antagonist for SPECT, tested in two patients]
route of excretion [6]: Predominantly renal excretion
